Data from US20110150875A1.

Columns and labels:
[1] = biological target: PCSK9-FLAG (Pan troglodytes (Chimpanzee); Homo sapiens (Human)) (UniProt A8T644); experiment: AlphaScreen, His-tagged matrilin-2 at log [Matrilin] uM -0.4317983 with PCSK9-FLAG; triplicate, SD 2548
[2] = biological target: PCSK9-FLAG (Pan troglodytes (Chimpanzee); Homo sapiens (Human)) (UniProt A8T644); experiment: AlphaScreen competition, matrilin-2 at 3.8 nM; inhibition of PCSK9-Flag binding to His-tagged LDL receptor (competitor LDLR), relative to maximum signal without matrilin-2
[3] = biological target: PCSK9-FLAG (Pan troglodytes (Chimpanzee); Homo sapiens (Human)) (UniProt A8T644); experiment: AlphaScreen, His-tagged matrilin-2 at log [Matrilin] uM -1.863162 with PCSK9-FLAG; triplicate, SD 1131
[4] = biological target: PCSK9-FLAG (Pan troglodytes (Chimpanzee); Homo sapiens (Human)) (UniProt A8T644); experiment: AlphaScreen, His-tagged matrilin-2 at log [Matrilin] uM -1.386041 with PCSK9-FLAG; triplicate, SD 1634
[5] = biological target: PCSK9-FLAG (Pan troglodytes (Chimpanzee); Homo sapiens (Human)) (UniProt A8T644); experiment: AlphaScreen competition, matrilin-2 at 1.3 nM; inhibition of PCSK9-Flag binding to His-tagged LDL receptor (competitor LDLR), relative to maximum signal without matrilin-2
[6] = biological target: PCSK9-FLAG (Pan troglodytes (Chimpanzee); Homo sapiens (Human)) (UniProt A8T644); experiment: AlphaScreen competition, matrilin-2 at 11 nM; inhibition of PCSK9-Flag binding to His-tagged LDL receptor (competitor LDLR), relative to maximum signal without matrilin-2
[7] = biological target: PCSK9-FLAG (Pan troglodytes (Chimpanzee); Homo sapiens (Human)) (UniProt A8T644); experiment: AlphaScreen, His-tagged matrilin-2 at log [Matrilin] uM -3.771647 with PCSK9-FLAG; triplicate, SD 220
[8] = biological target: PCSK9-FLAG (Pan troglodytes (Chimpanzee); Homo sapiens (Human)) (UniProt A8T644); experiment: AlphaScreen, His-tagged matrilin-2 at log [Matrilin] uM -2.340283 with PCSK9-FLAG; triplicate, SD 469
[9] = biological target: PCSK9-FLAG (Pan troglodytes (Chimpanzee); Homo sapiens (Human)) (UniProt A8T644); experiment: AlphaScreen competition, matrilin-2 at 34 nM; inhibition of PCSK9-Flag binding to His-tagged LDL receptor (competitor LDLR), relative to maximum signal without matrilin-2
[10] = biological target: PCSK9-FLAG (Pan troglodytes (Chimpanzee); Homo sapiens (Human)) (UniProt A8T644); experiment: AlphaScreen, His-tagged matrilin-2 at log [Matrilin] uM -0.9089195 with PCSK9-FLAG; triplicate, SD 3028
[11] = biological target: PCSK9-FLAG (Pan troglodytes (Chimpanzee); Homo sapiens (Human)) (UniProt A8T644); experiment: AlphaScreen, His-tagged matrilin-2 at log [Matrilin] uM -2.817405 with PCSK9-FLAG; triplicate, SD 412
[12] = biological target: PCSK9-FLAG (Pan troglodytes (Chimpanzee); Homo sapiens (Human)) (UniProt A8T644); experiment: AlphaScreen competition, matrilin-2 at 0.42 nM; inhibition of PCSK9-Flag binding to His-tagged LDL receptor (competitor LDLR), relative to maximum signal without matrilin-2
[13] = biological target: PCSK9-FLAG (Pan troglodytes (Chimpanzee); Homo sapiens (Human)) (UniProt A8T644); experiment: AlphaScreen competition, matrilin-2 at 0.14 nM; inhibition of PCSK9-Flag binding to His-tagged LDL receptor (competitor LDLR), relative to maximum signal without matrilin-2
[14] = biological target: PCSK9-FLAG (Pan troglodytes (Chimpanzee); Homo sapiens (Human)) (UniProt A8T644); experiment: AlphaScreen, His-tagged matrilin-2 at log [Matrilin] uM -3.294526 with PCSK9-FLAG; triplicate, SD 495

UniProt A8T644, sequence (A8T644 31-152 limits assumed, chain 1 of 2): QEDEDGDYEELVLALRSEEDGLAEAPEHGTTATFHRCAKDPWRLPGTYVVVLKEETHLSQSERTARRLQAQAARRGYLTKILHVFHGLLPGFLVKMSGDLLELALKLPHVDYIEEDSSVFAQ
UniProt A8T644, sequence (A8T644 other isoform, or with tags, fused parts or gaps limits assumed, chain 2 of 2): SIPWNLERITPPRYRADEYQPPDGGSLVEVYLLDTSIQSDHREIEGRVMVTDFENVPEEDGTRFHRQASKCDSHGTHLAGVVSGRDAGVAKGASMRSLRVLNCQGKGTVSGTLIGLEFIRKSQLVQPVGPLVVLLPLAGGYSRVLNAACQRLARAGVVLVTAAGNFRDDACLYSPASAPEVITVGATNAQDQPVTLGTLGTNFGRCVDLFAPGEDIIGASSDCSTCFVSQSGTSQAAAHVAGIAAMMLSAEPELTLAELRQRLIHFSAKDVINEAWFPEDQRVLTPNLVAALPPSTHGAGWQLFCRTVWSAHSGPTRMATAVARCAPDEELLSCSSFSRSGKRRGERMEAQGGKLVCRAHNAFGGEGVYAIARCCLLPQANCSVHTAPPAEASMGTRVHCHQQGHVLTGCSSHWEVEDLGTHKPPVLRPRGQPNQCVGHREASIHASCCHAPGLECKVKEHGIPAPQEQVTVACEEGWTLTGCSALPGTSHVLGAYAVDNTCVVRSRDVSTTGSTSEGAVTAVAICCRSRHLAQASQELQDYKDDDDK

Alphascreen Signal (counts per second) [1]: 213000 | % inhibition [2]: 17.1% | Alphascreen Signal (counts per second) [3]: 14100 | Alphascreen Signal (counts per second) [4]: 54000 | % inhibition [5]: 5.2% | % inhibition [6]: 36% | Alphascreen Signal (counts per second) [7]: 20200 | Alphascreen Signal (counts per second) [8]: 10100 | % inhibition [9]: 50.7% | Alphascreen Signal (counts per second) [10]: 222000 | Alphascreen Signal (counts per second) [11]: 12900 | % inhibition [12]: -0.4% | % inhibition [13]: 0.1% | Alphascreen Signal (counts per second) [14]: 18800
B1: His-tagged recombinant human matrilin-2 (mature, short isoform, Arg 24-Arg 937; R&D Systems Catalog Number 3044-MN) (protein, not shown: small tags and cut ends)
chain: RERSRGRSISRGRHARTHPQTALLESSCENKRADLVFIIDSSRSVNTHDYAKVKEFIVDILQFLDIGPDVTRVGLLQYGSTVKNEFSLKTFKRKSEVERAVKRMRHLSTGTMTGLAIQYALNIAFSEAEGARPLRENVPRVIMIVTDGRPQDSVAEVAAKARDTGILIFAIGVGQVDFNTLKSIGSEPHEDHVFLVANFSQIETLTSVFQKKLCTAHMCSTLEHNCAHFCINIPGSYVCRCKQGYILNSDQTTCRIQDLCAMEDHNCEQLCVNVPGSFVCQCYSGYALAEDGKRCVAVDYCASENHGCEHECVNADGSYLCQCHEGFALNPDKKTCTKIDYCASSNHGCQHECVNTDDSYSCHCLKGFTLNPDKKTCRRINYCALNKPGCEHECVNMEESYYCRCHRGYTLDPNGKTCSRVDHCAQQDHGCEQLCLNTEDSFVCQCSEGFLINEDLKTCSRVDYCLLSDHGCEYSCVNMDRSFACQCPEGHVLRSDGKTCAKLDSCALGDHGCEHSCVSSEDSFVCQCFEGYILREDGKTCRRKDVCQAIDHGCEHICVNSDDSYTCECLEGFRLAEDGKRCRRKDVCKSTHHGCEHICVNNGNSYICKCSEGFVLAEDGRRCKKCTEGPIDLVFVIDGSKSLGEENFEVVKQFVTGIIDSLTISPKAARVGLLQYSTQVHTEFTLRNFNSAKDMKKAVAHMKYMGKGSMTGLALKHMFERSFTQGEGARPLSTRVPRAAIVFTDGRAQDDVSEWASKAKANGITMYAVGVGKAIEEELQEIASEPTNKHLFYAEDFSTMDEISEKLKKGICEALEDSDGRQDSPAGELPKTVQQPTVQHRYLFEEDNLLRSTQKLSHSTKPSGSPLEEKHDQCKCENLIMFQNLANEEVRKLTQRLEEMTQRMEALENRLRYR
